According to US5807824A, “C5A receptor antagonists having substantially no agonist activity” (priority 1995, dated 1998):

T1: C5a receptor (Homo sapiens, UniProt P21730)
T1 construct: Neutrophils were purified from human peripheral blood; endogenous in cells; host or cells: neutrophils from human peripheral blood
T1 sequence (P21730 1-350): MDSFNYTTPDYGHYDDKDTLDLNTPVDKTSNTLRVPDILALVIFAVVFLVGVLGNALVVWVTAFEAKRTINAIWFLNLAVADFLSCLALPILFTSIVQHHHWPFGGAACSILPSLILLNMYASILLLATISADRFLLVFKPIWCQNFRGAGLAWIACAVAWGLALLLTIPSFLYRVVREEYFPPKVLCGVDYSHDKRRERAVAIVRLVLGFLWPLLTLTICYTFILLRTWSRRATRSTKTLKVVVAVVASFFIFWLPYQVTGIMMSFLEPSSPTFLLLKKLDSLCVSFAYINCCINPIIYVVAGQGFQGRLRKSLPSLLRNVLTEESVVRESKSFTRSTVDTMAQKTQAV


Molecular target: T1, C5a receptor
Test: Receptor binding assay: displacement of [125I]Bolton-Hunter labelled C5a from PMNL membranes
Conditions: Table 4; [125I]BH-C5a 4.0 pM, PMNL membranes, Cheng-Prusoff
Procedure: C5a and C5a receptor antagonists were tested for their affinity for the C5a receptor. […] PMNLs were resuspended in Hanks balanced salt solution, without Ca^++ and Mg^++ and which contained 10 mM HEPES at pH 7.3, 2.5 mM MgCl2, 100 units/ml DNAse I, 0.1 mM PMSF, 10 μg/ml aprotonin and 10 μg/ml leupeptin. They were then equilibrated at 400 psi for 20 min at 4° C. in a nitrogen cavitation bomb. After evacuation into 3 volumes 0.5M KHCO3 containing 25 mM EDTA and the protease inhibitors listed above, the gelatinous material was removed with forceps and the mixture was centrifuged at 400×g for 10 min at 4° C. The resulting supernatant was centrifuged at 50,000×g for 60 min at 4° C. The pellets from the aliquots representing 200×10^6 cells were stored at -70° C. For binding studies, these membranes were resuspended at an equivalent of 20×10^6 cells/ml in 50 mM HEPES at pH 7.3, containing 1 mM CaCl2, 5 mM MgCl2, 0.1 mM PMSF, 0.1% bacitracin and 0.5% BSA.
Nonspecific binding was determined in the presence of 10 nM unlabelled C5a. The binding reaction was initiated by the addition of the PMNL membranes and was continued for 120 min at 4° C. Bound and free radioactivity were separated by vacuum filtration through GF/C glass fiber filters (Whatman), pretreated for 90 min with 0.05% PEI (polyethyleneimine) using a Cell Harvester (Brandel, Gaithersburg, Md.). Filters were washed with 3×5 ml of ice-cold 5 mM Tris buffer at pH 7.4 and counted in a multiwell Gamma counter (Genesys). Data were analyzed using the non-linear regression analysis program, RS/1 (Bolt, Beranek and Newman, Boston) and expressed as IC50 values. The results are set forth below in Table 4 as Ki values using the Cheng-Presoff equation. See Braunwalder et al., supra.

Molecule | Ki [nM]
8 Cys: cysteine-adduct of the C5a analogue No. 8 (protein, UniProt P01031 678-751, looked up, variant T1M C27S Q71C, C5a anaphylatoxin cysteine adduct) C5a anaphylatoxin: MLQKKIEEIAAKYKHSVVKKCCYDGASVNNDETCEQRAARISLGPRCIKAFTECCVVASQLRANISHKDMCLGR | 2.8
C5a (1-71, T1M, C27S) (protein, UniProt P01031 678-751, looked up, variant T1M C27S, C5a anaphylatoxin, agonist, included for comparison) C5a anaphylatoxin: MLQKKIEEIAAKYKHSVVKKCCYDGASVNNDETCEQRAARISLGPRCIKAFTECCVVASQLRANISHKDMQLGR | 3
C5a (1-71, T1M, C275, Q71D) (protein, UniProt P01031 678-751, looked up, variant T1M C27S Q71D, C5a anaphylatoxin, agonist, included for comparison) C5a anaphylatoxin: MLQKKIEEIAAKYKHSVVKKCCYDGASVNNDETCEQRAARISLGPRCIKAFTECCVVASQLRANISHKDMDLGR | 8.5
C5a (1-71, T1M, C27S, Q71S) (protein, UniProt P01031 678-751, looked up, variant T1M C27S Q71S, C5a anaphylatoxin, agonist, included for comparison) C5a anaphylatoxin: MLQKKIEEIAAKYKHSVVKKCCYDGASVNNDETCEQRAARISLGPRCIKAFTECCVVASQLRANISHKDMSLGR | 7.5
C5a (1-71, T1M, C275, Q71H) (protein, UniProt P01031 678-751, looked up, variant T1M C27S Q71H, C5a anaphylatoxin, agonist, included for comparison) C5a anaphylatoxin: MLQKKIEEIAAKYKHSVVKKCCYDGASVNNDETCEQRAARISLGPRCIKAFTECCVVASQLRANISHKDMHLGR | 0.15
C5a (1-71, T1M, C27S, Q71R) (protein, UniProt P01031 678-751, looked up, variant T1M C27S Q71R, C5a anaphylatoxin truncated to residues 1-71, agonist, included for comparison) C5a anaphylatoxin: MLQKKIEEIAAKYKHSVVKKCCYDGASVNNDETCEQRAARISLGPRCIKAFTECCVVASQLRANISHKDMRLGR | 0.35
C5a (1-71, T1M, C275, Q71L) (protein, UniProt P01031 678-751, looked up, variant T1M C27S Q71L, C5a anaphylatoxin, agonist, included for comparison) C5a anaphylatoxin: MLQKKIEEIAAKYKHSVVKKCCYDGASVNNDETCEQRAARISLGPRCIKAFTECCVVASQLRANISHKDMLLGR | 0.035
